Measurements reported in US20050137135A1 (priority 2002, published 2005).
“Also recorded” adds a separate entry of the source. Ends that are not written are not given here.

Tests used:
[1] = test system: caspase-3 activity in INS-1 (832/13) cells; assay: Caspase-3 activity induced by glucose deprivation; format: cell-based; conditions: 6 h; 100 nM GIP, 10 µM forskolin
Method: INS-1 cells (clone 832/13) seeded into 6-well plates were serum starved for 12-24 h and subjected to glucose deprivation (RPMI with 0.1% BSA) or treatment with 2 mM streptozotocin (STZ). […] Following treatment, caspase-3 activity was determined after 2, 6, or 24 h according to the manufacturers' protocol (Molecular Probes, Eugene, Oreg., USA). Caspase-3 activity/well was corrected for total protein content using the BCA protein assay (Pierce, Roxford, II, USA).

INS-1 (832/13) cells [2] = assay: Cell survival during glucose deprivation (CYQUANT); format: cell-based; conditions: inhibitor added 15 min prior to final 24 h culture, 100 nM GIP
Method: (§1) Cell passages 45-60 were used.
Cells were seeded into 96-well plates (5×10^4 cells/well) prior to experimentation. […] Cells were quantified using the CYQUANT™ assay system (Molecular Probes, Eugene, Oreg., USA) according to the manufacturers' protocol.
Cell survival was assessed in the presence of prolonged glucose deprivation.

INS-1 (832/13) cells [3] = assay: Glucose dependent β-cell proliferation (CYQUANT cell quantification); format: cell-based
Method: as §1
Cells were seeded into 96-well plates (5×10^4 cells/well) prior to experimentation. […] Thereafter, cells were washed with KRBH (115 mM NaCl, 4.7 mM KCl, 1.2 mM KH2PO4, 10 mM NaHCO3, 1.28 mM CaCl2, 1.2 mM MgSO4 containing 10 mM HEPES and 0.1% bovine serum albumin, pH 7.4) and frozen at −70° C. until assayed. Cells were quantified using the CYQUANT™ assay system (Molecular Probes, Eugene, Oreg., USA) according to the manufacturers' protocol. Final cell numbers were always greater than the initial number plated in assessing cellular proliferation.

[4] = molecular target: T1, rat pancreatic islet (wild type) GIP-receptor stably expressed on CHO-K1 cells (rat) (UniProt P43219); assay: displacement of 125I-GIP from intact CHO-K1 cells expressing rat GIP receptor, 10 µM peptide
T1 sequence (looked up): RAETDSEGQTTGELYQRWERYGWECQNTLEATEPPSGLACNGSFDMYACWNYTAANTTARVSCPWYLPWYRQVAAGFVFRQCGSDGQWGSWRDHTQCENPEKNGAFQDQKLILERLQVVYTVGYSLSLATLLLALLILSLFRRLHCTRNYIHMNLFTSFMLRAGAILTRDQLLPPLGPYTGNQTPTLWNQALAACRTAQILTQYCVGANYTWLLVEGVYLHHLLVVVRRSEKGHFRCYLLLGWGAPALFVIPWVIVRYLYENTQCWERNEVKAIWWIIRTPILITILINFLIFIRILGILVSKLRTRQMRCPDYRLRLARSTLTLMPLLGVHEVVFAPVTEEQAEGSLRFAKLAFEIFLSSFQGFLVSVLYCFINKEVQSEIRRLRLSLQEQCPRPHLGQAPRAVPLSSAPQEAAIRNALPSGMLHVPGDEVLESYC

[5] = molecular target: T1, rat pancreatic islet (wild type) GIP-receptor stably expressed on CHO-K1 cells (rat); assay: cell-based or functional assay
[6] = molecular target: T1, rat pancreatic islet (wild type) GIP-receptor stably expressed on CHO-K1 cells (rat); assay: competition with 125I-GIP on intact CHO-K1 cells expressing rat GIP receptor
[7] = molecular target: T2, rat pancreatic islet (wild type) GIP-receptor (Rattus norvegicus, UniProt P43219); assay: cAMP production in CHO-K1 cells expressing the GIP-receptor (wtGIP-R1 cells); format: cell-based; conditions: basal cyclic AMP = 2.737 ± 0.079 fmol/1000 cells; for cAMP Production (Fold Basal) 10 μM: 10 μM peptide
T2 construct: expressed in transfected cells; host or cells: CHO-K1 (Chinese hamster ovary)
T2 sequence (P43219 19-455): T1 sequence (looked up)
Method: (§2) Cells were cultured in DMEM/F12, supplemented with 10% newborn calf serum, 50 units/ml penicillin G, and 50 μg/ml streptomycin (Culture media and antibiotics from Gibco BRL, Life Technologies). Cells were grown in 75 cm^2 flasks until 80-90% confluent, when they were split and seeded onto 24 well plates at a density of 50,000 cells/well. Experiments were carried out 48 h later.
Cells were extracted with 70% ethanol and cAMP levels measured by radioimmunoassay (Biomedical Technologies, Stoughton, Mass.). Data are expressed as fmol/1000 cells or % maximal GIP1-42-stimulated cAMP production (inhibition experiments).

[8] = molecular target: T2, rat pancreatic islet (wild type) GIP-receptor; assay: biochemical; format: binding
Method: as §2
(§3) Binding studies using ^125I-labeled spGIP1-42, purified by high performance liquid chromatography (HPLC), were performed essentially as described previously-[21]. wtGIP-R1 Cells (1-5×10^5/well) were washed twice at 4° C. in binding buffer (BB), consisting of DMEM/F12 (GIBCO), 15 mM HEPES, 0.1% bovine serum albumin (BSA), 1% Trasylol (aprotinin; Bayer), pH 7.4. They were incubated for 12-16 h at 4° C. with ^125I-spGIP (50,000 cpm) in the presence or absence of unlabeled GIP1-42 or analogue. Following incubation, cells were washed twice with ice cold buffer, solubilized with 0.1 M NaOH (1 ml), and transferred to culture tubes for counting of cell-associated radioactivity. Nonspecific binding was defined as that measured in the presence of 1 μM GIP1-42 or GIP1-30, and specific binding expressed as % of binding in the absence of competitor (% B/Bo).

[9] = molecular target: T3, DPIV (dipeptidyl peptidase IV) (Sus scrofa, UniProt P22411); assay: Determination of DPIV resistance by MALDI-TOF mass spectrometry; format: in vitro ADME; conditions: purified kidney DPIV, 0.04 M Tris buffer pH 7.6, up to 24 h, MALDI-TOF MS; read-out: half life after incubation with DP IV
T3 construct: The hydrolysis of peptide analogues by purified kidney DPIV was studied as described previously [12]; from tissue; host or cells: kidney
T3 sequence (P22411 whole entry): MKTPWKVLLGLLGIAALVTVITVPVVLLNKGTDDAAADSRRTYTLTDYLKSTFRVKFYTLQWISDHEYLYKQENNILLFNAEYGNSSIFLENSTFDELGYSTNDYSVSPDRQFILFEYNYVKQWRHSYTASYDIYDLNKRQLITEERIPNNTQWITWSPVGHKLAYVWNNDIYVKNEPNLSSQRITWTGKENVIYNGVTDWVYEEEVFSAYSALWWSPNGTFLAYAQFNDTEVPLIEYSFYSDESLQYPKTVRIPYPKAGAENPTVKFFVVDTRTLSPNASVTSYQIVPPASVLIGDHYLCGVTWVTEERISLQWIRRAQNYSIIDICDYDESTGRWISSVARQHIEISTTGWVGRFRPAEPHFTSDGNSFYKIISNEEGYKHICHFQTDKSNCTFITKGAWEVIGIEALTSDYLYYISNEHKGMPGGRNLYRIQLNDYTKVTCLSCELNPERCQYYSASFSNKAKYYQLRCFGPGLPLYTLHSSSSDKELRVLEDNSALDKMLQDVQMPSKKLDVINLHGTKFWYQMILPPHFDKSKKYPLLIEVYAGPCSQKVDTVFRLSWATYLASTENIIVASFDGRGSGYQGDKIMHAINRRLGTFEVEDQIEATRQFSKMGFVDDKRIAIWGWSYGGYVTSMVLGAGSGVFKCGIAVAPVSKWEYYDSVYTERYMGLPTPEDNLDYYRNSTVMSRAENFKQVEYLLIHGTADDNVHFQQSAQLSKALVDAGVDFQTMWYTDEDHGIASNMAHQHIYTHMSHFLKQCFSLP
Method: The hydrolysis of peptide analogues by purified kidney DPIV was studied as described previously. […] Samples were removed from the incubation mixture and prepared for MALDI-TOF mass spectrometry, as described in Pauly, […]., Pederson, R. A., and Demuth, H. U.

[10] = molecular target: T4, rat pancreatic islet (wild type) GIP-receptor stably expressed on CHO-K1 cells (rat, UniProt P43219 19-455); assay: cell-based or functional assay
T4 sequence (looked up): T1 sequence (looked up)

[11] = molecular target: T4, rat pancreatic islet (wild type) …; assay: displacement of 125I-GIP from intact CHO-K1 cells expressing rat GIP receptor, 10 µM peptide
Method: as §2, with “cm²” for “cm^2”
as §3, with “¹²⁵I-labeled spGIP₁₋₄₂,” for “^125I-labeled spGIP1-42,”, “(1-5×10⁵/well)” for “(1-5×10^5/well)”, “¹²⁵I-spGIP” for “^125I-spGIP”, “GIP₁₋₄₂” for “GIP1-42”, “GIP₁₋₃₀,” for “GIP1-30,”

[12] = molecular target: T4, rat pancreatic islet (wild type) …; assay: competition with 125I-GIP on intact CHO-K1 cells expressing rat GIP receptor
Method: as §2, with “cm²” for “cm^2”
as §3, with “¹²⁵I-labeled spGIP₁₋₄₂,” for “^125I-labeled spGIP1-42,”, “(1-5×10⁵/well)” for “(1-5×10^5/well)”, “¹²⁵I-spGIP” for “^125I-spGIP”, “GIP₁₋₄₂” for “GIP1-42”, “GIP₁₋₃₀,” for “GIP1-30,”

CC(=O)N[C@@H](CC(=O)O)C(=O)N[C@@H](CCC(=O)O)C(=O)N[C@H](C(=O)N[C@H](C=O)CC(=O)O)C(C)C [Ac-DEVD-CHO]
0 mM glucose induced caspase-3 activity [1]: completely blocked low glucose activation

O=S(=O)(NCCNC/C=C/c1ccc(Br)cc1)c1cccc2cnccc12 [H89]
effect of protein kinase inhibitor on GIP-mediated cell survival (INS-1 (832/13) cells [2]): lack of effect; also recorded: unable to reverse

COc1cccc(-c2cc(=O)c3ccccc3o2)c1N [PD98059]
effect of protein kinase inhibitor on GIP-mediated cell survival (INS-1 (832/13) cells [2]): Neither of the Mek1/2 inhibitors PD98059 (50 and 100 μM) nor U0126 (10 μM) blocked

Oc1ccc(-c2nc(-c3ccncc3)c(-c3ccc(F)cc3)[nH]2)cc1 [SB202190]
effect of protein kinase inhibitor on GIP-mediated cell survival (INS-1 (832/13) cells [2]): influenced GIP-mediated cell survival

N#CC(=C(/N)Sc1ccccc1N)/C(C#N)=C(\N)Sc1ccccc1N [U0126]
effect of protein kinase inhibitor on GIP-mediated cell survival (INS-1 (832/13) cells [2]): Neither of the Mek1/2 inhibitors PD98059 (50 and 100 μM) nor U0126 (10 μM) blocked

GH: GH, comparator for cell growth in INS-1 cells
cell proliferation, % of growth in the presence of 5.5 mM glucose (INS-1 (832/13) cells [3]; 11 mM glucose, 10 nM, FIG. 15A): 158±9%

GIP 1-7NH2 (from UniProt P09681 52-58) (peptide)
% Displacement at 10 µM [4]: -6.1%

GIP 1-15OH (from UniProt P09681 52-66) (peptide)
% Displacement at 10 µM [4]: -3.1%

GIP 15-42OH (peptide)
cAMP Production (Fold Basal) at 10 µM [5]: 1.02 fold basal | cAMP Production (Fold Basal) at 20 µM [5]: 1.01 fold basal | % Displacement at 10 µM [4]: 83.3% | IC50 [6]: 1270 nM

ISDYSIAMDKIRQQDFVNWLLAQK-NH2 [GIP7-30a, reference compound]
cAMP Production (Fold Basal) 10 μM [7]: 0.89 ± 0.06 Fold Basal | cAMP Production (Fold Basal) 20 μM ([7]; 20 μM peptide): 0.85 ± 0.03 Fold Basal | Receptor Binding % Displacement at 10 μM ([8]; 10 μM peptide, 125I-GIP): 99.3 ± 1.0% | half-life [9]: 2.17 ± 0.177 h

YAEGTF-NH2 [GIP1-6a]
Receptor Binding % Displacement at 10 μM ([8]; 10000.0): −3.6 ± 7.8% | half-life [9]: > 0.125 h

YAEGTFISDYSIAMDKIRQQDFVNWLLAQK-NH2 [GIP1-30a, reference compound]
cAMP Production (Fold Basal) 10 μM [7]: 108 ± 12 Fold Basal | Receptor Binding % Displacement at 10 μM ([8]; 10 μM peptide, 125I-GIP): 99.8 ± 1.2% | half-life [9]: < 0.25 h

glucagon-like peptide-17-36 [GLP-1]
cell growth, % of that measured in the presence of 5.5 mM glucose (INS-1 (832/13) cells [3]; separate experiment, 100 nM, n=4): 129±4%

YAEGTFISDYSIA-OH (peptide, UniProt P09681 52-64, looked up) [GIP 1-13OH]
cAMP Production (Fold Basal) at 10 µM [5]: 1.03 fold basal | cAMP Production (Fold Basal) at 20 µM [5]: 1.15 fold basal | % Displacement at 10 µM [4]: -0.2%

QQDFVNWLLAQK-NH2 (peptide, UniProt P09681 70-81, looked up, range 19-30; also called GIP19-30a) [GIP 19-30NH2]
cAMP Production (Fold Basal) at 10 µM [10]: 20.1 fold basal | cAMP Production (Fold Basal) at 20 µM [10]: 45 fold basal | % Displacement at 10 µM [11]: 52.3%

YAEGTFISDYSIA-NH2 (peptide, UniProt P09681 52-64, looked up, range 1-13) [GIP 1-13NH2]
cAMP Production (Fold Basal) at 10 µM [10]: 6.51 fold basal | cAMP Production (Fold Basal) at 20 µM [10]: 15.7 fold basal | % Displacement at 10 µM [11]: 5%

DKIRQQDFVNWLLAQK-NH2 (peptide, UniProt P01281 15-30, looked up, range 15-30; also called GIP15-30a) [GIP 15-30NH2]
cAMP Production (Fold Basal) at 10 µM [10]: 1.24 fold basal | cAMP Production (Fold Basal) at 20 µM [10]: 1.01 fold basal | IC50 [12]: 1400 nM | % Displacement at 10 µM [11]: 82.7%

YAEGTF-NH2 (peptide, UniProt P09681 52-57, looked up) [GIP 1-6NH2]
cAMP Production (Fold Basal) at 10 µM [5]: 1.27 fold basal | cAMP Production (Fold Basal) at 20 µM [5]: 1.08 fold basal | % Displacement at 10 µM [4]: -3.6%

B1: GIP 1-14OH (peptide, UniProt P09681 52-65, looked up)
peptide: YAEGTFISDYSIAM-OH
notes: range 1-14; free acid form; also called native GIP (1-14)
cAMP Production (Fold Basal) at 10 µM [10]: 88.9 fold basal | cAMP Production (Fold Basal) at 20 µM [10]: 85.2 fold basal | % Displacement at 10 µM [11]: 51.3%

IRQQDFVNWLLAQK-NH2 (peptide, UniProt P01281 17-30, looked up, range 17-30; also called GIP17-30a) [GIP 17-30NH2]
cAMP Production (Fold Basal) at 10 µM [10]: 1.13 fold basal | cAMP Production (Fold Basal) at 20 µM [10]: 1.12 fold basal | IC50 [12]: 1540 nM | % Displacement at 10 µM [11]: 81.9%

YAEGTFISDYSIAM-NH2 (peptide, UniProt P09681 52-65, looked up, range 1-14) [GIP 1-14NH2]
cAMP Production (Fold Basal) at 10 µM [10]: 75.4 fold basal | cAMP Production (Fold Basal) at 20 µM [10]: 88.3 fold basal | % Displacement at 10 µM [11]: 27.9%
